Data published in the nanobody polyreactivity screen of Harvey et al. (2022).

test: yeast display, Sf9 membrane polyspecificity reagent, FACS + sequencing; frameworks hold sequencing errors
How it was run: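 A nanobody's polyreactivity label depends on the gate it was sorted from. Yeast display cells were stained with 10% biotinylated, detergent-solubilized Sf9 membrane reagent for 1 hour at 4 °C, enriched on streptavidin microbeads and sorted by FACS. The low and high (top ~1%) gates were set on anti-HA fluorescence for expression and streptavidin fluorescence for reagent binding.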

Sequence	polyreactivity (PSR sort gate)
QVQLVESGGGLVQEGGSLRLSCAASGSIFDDYAMGWYRQAPGKEWELVAAITSGGSTYYADSVKGRFTISRDNAKNTVYLQMNSLKPEDTAVYYRATRYHWSSSFAPVGAYGYWGHGTQVTVSS	low polyreactivity
QVQLVESGLGLVQAGGSLRLSCAASGRIFYLNDMGWYRQAPGIERELVADMTRSGGTTYYADSVKGRFTISRDNEKNTVYLQMNSLKPEETSVYYCAAESRFRYVYGVGYRPYLYGYWGQGTQVTVSS	low polyreactivity
QVQLVESGGGLVQAGGSLRLSCAASGRIYWNTMGWYIQAPGKERELVASISTGGGRTYYADSVKGRFTISRDNAKNTVYLQMNSLKPEDTAVYYCAVRSYGHGFDYWGQGTQVTVSS	high polyreactivity
QVQLVESGGGLVQAGGSLRLSCAASGRTSGNNAMGWYRQAPGKERELVAAITRGGRTYYADSVKGRFTISRDNAKNTVYLQLNSLKPEDTAVYYCAARRYFYLFGYYYWGQGTQVTVSS	high polyreactivity
QVQLVESGGGLVQAGGSLRLSCAASGLTFRYYTMGWYRQAPVKERELVAAISRGGSTTYADSVKGRFTISRVNAKNTVYLQMNSLKPEDTAVYYCAVRPGTWSNYYAGGKKYDYWGLGTQVTVSS	high polyreactivity
QVQLVESGGGLVQAGGSLRLSCAASGRTISYAMGWYRQAPGKEREMVAAIRYRGGSTYYADSVKGRFTISRDNAKNTVYLQMNSLKPEDTAVYYCAAQDSYTPPILFRRGYLRYDYWGQGTQVTVSS	low polyreactivity
QVQLVESGGGLVQAGGSLRLSCAAYGNIFDGNAMGWYRQAPGKERELVAAITGRGGGTYYADSVKGRFTISRDNAKNTVYLLMNSLKPEDTAVYYCNKYYYRGGMDYWGQGTQVNVSS	high polyreactivity
QVQLVESGGGLVQAGGSLRLSCAASGSIYNINAMGWYRQAPGKERELVATITSGGTTSYADSVKGRFTISRDNAKNTVYLQMNSLKPEDTAVYYCNAEIYPIVKAGRQHPRRYDYWGQGTQVTVSS	low polyreactivity
QVQLVESGGGLVQAGGSLRLSCAASGLIFAYYAMGWYRQAPGKERELVAAISWSGDNTYYADSVKGRFTISRDNAKNTVYLEMNSLKPEDTAVYYCNVDTYGAWSWYYGLHHMDYWGQGTQVTVSS	low polyreactivity
QGQLVESGGGLVQAGGSLRLSGAASGRTFRCNAMGWYRQAPGKERELVAAITSSGGRTYYADSVNGRFTISRDNAKNTVYLQMNSLKPEDTAVYYCAADAYQRGSGRYYEYDYWGQGTQVTVSS	high polyreactivity
QVQLVESGGGLVQAGCSLSLSCAASGITFRSYAKGWYRQAPGKERELVAAIRSGGSTSYADSVKGRFTISRDNAKYTVYLQMNSLKPEDTAVYYCAAGGYVPLPDITFWKFGYWGQGTQGTVSS	low polyreactivity
QVQLVESGGGLVQAGGSLRLSCAASGITVGYYAMGWYRLAPGKERELVAAITRGGGSTYYADSVKGRFTISRDNAKYTVYVQKNSLKPEDTAVYYCAAKTSGPGAGHDYWGQGTQVTVSS	high polyreactivity
QVQLVESGGCLVQAGGSLRLSCAASGYIFDHYAMGCYRQAPGKERELVAAISRSAGSTYYADSVKGRFTISRDNAKNTVYLQMNSLKPEDTAVYYCNAVVAVRSWRKYEYWGQGTQVTVSS	high polyreactivity
QVQLVESGGGLVQAGGSLRLSCAASGRTFAPYVMGWYRQAPGKERELVAAITWSGGSTYYADSVKGRFTISRDNAKKTVYLQMNSLKPEDTAVYYCAVKGAGGPKYDYWGQGTQVTVSS	high polyreactivity
QVQLVESAGGLVQAGGSLRLSCAPSGSIFVAYAMGGYLQAPGKERELVAAISWRSGSTYYADSVKGRFTISRDNAKNTVYLQMNSLKPEDTAVYYSAAKQDQDYYWGQGTQVTVSS	low polyreactivity
QVQLVESRGGLVQAGGSLRLSCAASRSIFNINTMGWYRQAPGKERELVAAISYSGGSTYYADSVKGRFTISRDNAKNTVYLQKNSLKREDTAVYYCNVSPTTSGDGGGYDSWGQGTKVTVSS	low polyreactivity
QVQLVESCGGLVQAGGSLRLSCAASGRTFYKNTMGWYRQAPGKERELVATISQRGGSTYYADSVKGRFTISRDNAKNTVFLQMHSLKPEDTAVYYCNARHYYIWWRSPTRTAMNYWGQGTQVTVSS	high polyreactivity
QVQLVESGGGLVQSGGSLRLSCAACGGTFYRYAMGWYRQAPGKERELVAAITSGSSTYYADSVKGRFTISRDNAKNTVYLQMNSLTPEDTAVYYCAAARYSRLSRTRPGKYGYWGQGTQVTVST	low polyreactivity
QVQLVESGGGLVQAGGSLRLSCAASGRTIYYYAMGWYRQAPGKERELVAAITSGGSTYYADSVKGRFTISRDNEKNTVYLQMNSLKPEDTAVYYCAARPLEGWHYGSWGQGTQVTVSS	low polyreactivity
QVQLVESGGGLVQAGGSHRVRCAASGRTFSQYDLGWYRQEPGKERELVAAITRSGSRTYYADSVKGRFTISRDNAKNTVYLQMNSLKPEDTAVYYCNARSISRKKGYPPQRRDGYWGQGTQVTVSS	high polyreactivity

Sequence	polyreactivity (PSR sort gate)
QVQHVESGICLVQAGGSLRLSCAASGGTVTPYAMGWYRQAPGKERELVAAISRYGARTYYADSVKGRFTISRDNANNNVFLEMNSLKPEVSAVYYCAARWYARTYVRGGMVYWRQGTQVTVSS	high polyreactivity
QVQLVESGGGLVQAGGSLRLSCAASGSIFGSYAMGWYRQAPGKERELVAAIRSGGGTYYADSVKGRFTISRDNAKNTVYLQMNSLKPEDTAVYYCAAGDGFYFSFYIYDYWGQGTQGTVSS	low polyreactivity
QVQLVESGGGLVQARGSLRLSCAASGNTIIRYAMGWYRQAPGKERELVAAISYAGGRTYYADSVKGRFTISRDNAKNTVYLQMNSLTPEDTAVYYCNAASRYGGDYWGQGTQVTVSS	high polyreactivity
QVQLVDSGGGLVQAGGSLRLSCASSGFIFQYNTMGWSRQAPGKERELVAVITRTGSTNYADSVKGRFTISRDNANNTVYLQMNSLKPEDTAVYYCATSVYSRPRKPRYYYWGQGTQLTVSS	high polyreactivity
QVQLVESGGGLVQAGGSLRLSCAASGITSRFNAMGWYRQAPGKERELVAAISSRGTSTYYADSVKGRFTISRDNAKNTVYLQMNTLKPEDTAVYYCAVSQRAPKFPGDYWGQGPQVTVSS	high polyreactivity
QVQLVESGGGLVQAGGSLRLSCAASGFTFGGYAMGWYRQAPGKERELVARIRRSGGSTYYADSVKGRFTISRDNAKNTVYLQMNSLKPEDTAVYYCAAGYSRGQYRYNYWGQGTQVTVSS	high polyreactivity
QVQLVESGGGLVQAGGSLRLSCAASGRTFRYYAMGWSRQAPGKERELVASITSGGRTYYADSVKGRFTISRDNAKNTVYLQMNSLKPEDTAVYYCAADTPVTASSPPSDYWGQGTQVTVSS	high polyreactivity
QVQLVESGGGLVQAGCSLRLSCAACGSIFGPYSMGWYRQAPAKEREFVAAISRSGTSTNYADSVKGRFTISRDNAKNTVYLQMNSLKPEDTAVYYCATAAFIVGSSRTYDYWGQGTQVTVSS	high polyreactivity
QVQLVESGGGIVQAGGSLRLSCAASGRTFLQNAMGWYRQAPGKERELVATINYSGSSTYYADSVKGRFTISRDNAKKTVYLQMNSLKPEDTAVYYCNRDVPYRLVYYANYYRGQGTQVTVSS	low polyreactivity
QVQLVESGGALVQAGGSLRLSCAASGLIYSHNAMGWYRQAPGKERELVAAISWRGGRTYYADSVKGRFTISRDNAKNTVYLLMNSLKPEDTAVFYCNKYYGKRYDYLGQGTQVTVSS	high polyreactivity
QVQLVESGGGLVHAGGSLRLSCAASGRICGPYVMGWYRQAPGKERELVASITSSGGSPYYADSVKGRFTISRDNAKNTVYLQMNSLKPEDTAVYYWGQGTQVSVSS	low polyreactivity
QVQLVESGGGLVQAGGSLRLSCAASGLTFRKYAMGWYRQAPGKERELVAAITRGGSTNYADSVKGRFTISRDNAKNTVYLQMNSLKPEDTAVYYCAAQYTYRFPYPGYATTHDYWGQGTQVTVSS	high polyreactivity
QVQLVESGGGLVQAGGSLRLSCAASGSIFPHYAMGWYRQAHGKERELVAAMSYSGGRTYYADSVKGRFTISRDNAKNTVYLQMNSLKPEDTAVYYCAKPERVLYHGDYWGQGTQVTVSS	low polyreactivity
QVQLVESGGGLVQAGGSLRLSCAASGRTFASYAMGWNRQPPGKERELFARISKSGGSTYYADSVKGRFTISRDNAKNTVYLQMNSLKPEDTAVYYCAAEYPFEIGYVYYSIDYDYWRQGTQVTVSS	low polyreactivity
QVQLVESGGGLVQAGGSLRLSCAASGSIFYLNAMGWYRQAPGKERELVAAISKRGSRTYYADSVKGRFTISRDNAKNTVYLQMNSLKPEDTAVYYCNALDTPGYNTEPARQYDHWGQGTQVTVSS	high polyreactivity
QVQLVESGGGLVQAGGSLRLSCAASGSTFYPYAKGWYRQAPRKERELVATITNSGGSTYYADSVKGRFTISRDNAKNTVYLQMNSLKPEDTAVYYCARVRSRNTGYYYWGQGTQVTVSS	high polyreactivity
QVQLVESGGGLVQAGGSLRLTCAASGSTFLGYAMGWYRQAPGKERELVAAINLSTSGTYYADSVKGRFTISRDNAKNTVYLQMNSLKPEDTAVYYCAAAYSNINYYYQYYYWGQGTQVTVSS	low polyreactivity
QEQLVESGGGLVQAGGSLRLSCAASGSIQPNAMGWYRQAPGKEREFVAAISRSGASTYYADSVKGRFTISRDNAKNTVYLQMNSLKPADTAVYYCAADFYYYNNNDYDYWGQGTQVTVSS	high polyreactivity
QVQLVESGGGLVQAGGSLRLSCAASGSIFAVYTMGWYRQAPGKERELVAAINWSGARTYYADSVKGRFTISRDNEKNTVYLQMNSLKPEDSAVYYCAAESRLGVAYIYWGQGTQVTVSS	low polyreactivity
QVQLVESGGGLVQAGGRLRLSCAASGSTFPTNVMGWYRQAPGKERELVAAITKRGSITYYADSVKGRFTISRDNAKNTVYLQMNSLKPEDTAVYYCAARKVAVRGYGYWGQGTQVTVSS	high polyreactivity
